One molecule from article PMC10331576 (2023) can be followed below.

For this assay, the target named is COVID-2019-Spike-328-585 (RBD) (SARS-CoV-2, UniProt P0DTC2 328-585). Put plainly: BLI. A general note: In BLI a coated tip is dipped into the sample, and binding shifts an interference pattern.

B1: DC-SIGN.Fc (Fc fusion)
chain: QVSKVPSSISQEQSRQDAIYQNLTQLKAAVGELSEKSKLQEIYQELTQLKAAVGELPEKSKLQEIYQELTRLKAAVGELPEKSKLQEIYQELTWLKAAVGELPEKSKMQEIYQELTRLKAAVGELPEKSKQQEIYQELTRLKAAVGELPEKSKQQEIYQELTRLKAAVGELPEKSKQQEIYQELTQLKAAVERLCHPCPWEWTFFQGNCYFMSNSQRNWHDSITACKEVGAQLVVIKSAEEQNFLQLQSSRSNRFTWMGLSDLNQEGTWQWVDGSPLLPSFKQYWNRGEPNNVGEEDCAEFSGNGWNDDKCNLAKFWICKKSAASCSRDEEQFLSPAPATPNPPPA
With B1, the off-rate constant (koff) stood at 0.000614 s⁻¹.

In general, koff refers to the first-order rate constant of dissociation. Higher therefore signals fast dissociation.
